Here are results for 2 molecules from publication PMC5127644, “SPRTN is a mammalian DNA-binding metalloprotease that resolves DNA-protein crosslinks”.

The target in one series is T1, SPRTN full length (Homo sapiens, UniProt Q9H040 1-489).
T1 sequence: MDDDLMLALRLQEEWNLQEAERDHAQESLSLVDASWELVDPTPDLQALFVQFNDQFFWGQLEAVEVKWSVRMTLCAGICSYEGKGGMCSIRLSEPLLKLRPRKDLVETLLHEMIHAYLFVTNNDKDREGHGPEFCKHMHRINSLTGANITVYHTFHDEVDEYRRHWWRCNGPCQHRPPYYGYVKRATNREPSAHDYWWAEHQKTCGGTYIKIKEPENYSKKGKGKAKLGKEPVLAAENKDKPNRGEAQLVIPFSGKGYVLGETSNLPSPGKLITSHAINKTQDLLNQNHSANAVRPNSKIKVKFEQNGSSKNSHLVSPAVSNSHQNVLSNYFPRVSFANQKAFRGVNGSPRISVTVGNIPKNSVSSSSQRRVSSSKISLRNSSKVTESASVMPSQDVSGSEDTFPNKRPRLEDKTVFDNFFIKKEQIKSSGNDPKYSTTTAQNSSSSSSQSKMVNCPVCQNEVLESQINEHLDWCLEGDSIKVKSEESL
In words: EMSA; 5 uM ZnSO4; EMSA: 10 mM Tris-HCl pH 7.5, 0.2 mM DTT, 5 uM ZnSO4, 0.25 uM DNA, 30 uL, 30 min at 20 C, 1.5% agarose gel. The conditions noted are these: protein: recombinant, tags: Z-basic-His tag, TEV-cleaved (E. coli, pNIC-ZB).

For another series, the target named is T2, SPRTN-∆C (a.a. 1-216) (Homo sapiens, UniProt Q9H040 1-216).
T2 sequence: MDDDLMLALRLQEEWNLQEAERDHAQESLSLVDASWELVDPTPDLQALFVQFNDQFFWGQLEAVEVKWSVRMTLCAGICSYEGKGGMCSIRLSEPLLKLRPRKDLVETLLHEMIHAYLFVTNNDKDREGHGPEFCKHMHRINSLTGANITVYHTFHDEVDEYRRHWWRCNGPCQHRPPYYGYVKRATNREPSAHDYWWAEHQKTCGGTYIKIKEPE
The series is described as above. The conditions noted are these: protein: recombinant, tags: His tag (pNIC28-Bsa4), TEV-cleaved (E. coli).

The mark [1] stands for this setting: label: 6-FAM (5' as drawn), single strand.
Setting [2] is: label: 6-FAM on strand 1, blunt.

B1: 6-FAM-ssODN 39-mer (ssDNA)
DNA: GCGCGCCCATTGATACTAAATTCAAGGATGACTTATTTC
For B1, the binding result with SPRTN full length (setting [1]) was “binds”; with SPRTN-∆C (a.a. 1-216) (setting [1]), “no binding”.

B2: 6-FAM-dsODN 39-mer (dsDNA)
DNA 1: B1 DNA
DNA 2: GAAATAAGTCATCCTTGAATTTAGTATCAATGGGCGCGC
On to B2, for which the binding result in the series with SPRTN full length (setting [2]) is reported as “binds”; in the series with SPRTN-∆C (a.a. 1-216) (setting [2]) it was “no binding”.
